Laboratory results: the DeepSol protein solubility set

Experiment: soluble on expression in E. coli; label from the status in PepcDB or PDB records

Soluble on expression in E. coli, not soluble:
MTDKLPFALYSRCVKAGKRFYYIDAKRDSKGNDYLVITESNSAEEGSAMTRHKVFLYREDFAKFTEAFLDVLKSFEKRSGVSGCEQAIGLSELEQSLSDMTTGVEGLAESSDSILEEDEPLKIDFDF, MSMENFAQLLEESFTLQEMNPGEVITAEVVAIDQNFVTVNAGLKSESLIDVAEFKNAQGEIEVKVGDFVTVTIESVENGFGETKLSREKAKRAADWIALEEAMENGNILSGIINGKVKGGLTVMISSIRAFLPGSLVDVRPVKDTSHFEGKEIEFKVIKLDKKRNNVVVSRRAVLEATLGEERKALLENLQEGSVIKGIVKNITDYGAFVDLGGIDGLLHITDLAWRRVKHPSEVLEVGQEVEAKVLKFDQEKQRVSLGMKQLGEDPWSGLTRRYPQATRLFGKVSNLTDYGAFVEIEQGIEGLVHVSEMDWTNKNVHPSKVVQLGDEVEVMILEIDEGRRRISLGMKQCQANPWEEFAANHNKGDKISGAVKSITDFGVFVGLPGGIDGLVHLSDLSWTESGEEAVRKYKKGEEVEAVVLAIDVEKERISLGIKQLEGDPFGNFISVNDKGSLVKGSVKSVDAKGAVIALSDEVEGYLPASEFAADRVEDLTTKLKEGDEVEAVIVTVDRKNRSIKLSVKAKDAKESREALNSVNAAANANAGTTSLGDLLKAKLSGEQELEHHHHHH, MQVSDLFIREMPSDCLPRERLLAIGEKALSNQELLAILLRTGSKEADVMTVAATLLKQFKQLSYLQQATLNELMAIKGIGQVKAIELRAAIELGCRIYQSSQIKFGKVTSSQQVAQRLLQEMKGLQQEHLICIYLNTKNDIIQQKTIFKGSLNQSIAHPREIFREAVKYSSARILLAHNHPSGNPTPSPQDIQFTKRMEECGEMMGIQLLDHIILGDSGYISLREENFFASE, ISSEQDAINNRFLPTTDRFSERGSYGNFNYAAYQPEAAIGGEKNPLIVWLHGIGEVGTDINIPLLASNVARLTEDPIQSHFTSTGSGGQKGAYVLVPQSSIPWSQNQTASLMALIKAYVASHPDIDSRRIYLAGVSNGGGMTLDMGVAYPNYFAALVPIAASYSNQLTDNQITAAALKALKGQPMWLIHTRTDKTISADSSVLPFYKELLQAGAQNKWLSYYETNVGKHHSGVTYNGHWSWIYFLNDQV, MCFINLRSVADTINTQTRRITMFTYYQAENSTAEPALVNAIEQGLRAQHGVVTEDDILMELTKWVEASDNDILSDIYQQTINYVVSGQHPTLLEHHHHHH, MAHHHHHHMPPQQPVGIMDNEEEFPVEEPPPMDPLIKLLHLRHTYTSQYVDEAVREEVKAAMLKIAHEHNMAPYLRFASEMFCWTVDEEQLRAMDAINATKLEELDARIKDAQENLGDVEVRDGLLARCHHFARIGDMEECLKFNNECSGKTLAAGSKLDLCFQRILLGLAFSDNEVAANGICSAHRLMKEGDWERRNRLKVYEGLFYVYIRDFKKGSELLLDSISTFAASELMDFNEFILVTVVASLPVLSRSQLKKCILDSPEVHSANIKNVFHLVTAIYECRYKEVFPTLDAVCQQLRGIVYLSQHVNYFFREVRVLVFKQFLDSYSSVTLKSMSNAFGIPSPVLDSMLGTLISNERIACKMDRVSDSITTYRGDTTNLDYHRIVKNGDLLLNRIQKLSRLAEV, MGSDKIHHHHHHMPFIIDYQCLCAINSEIKMFSGEQLGQAISEAIKRKNVSQKEVADHFGVKQPSVSGWIKNGRIDKKHLDKLIDYFSDVVTPSHFGIETFRVLKSNEQSSIRFPRLNAEATCGAGTINDHYIEVVDYVTVAAAWAREKLGGNLNKIQVITARGDSMEPTIENGDVMFVDTAVEAFDGDGLYLLWYIDGLKAKRLQSTVGGGLMIISDNSSYRTETVRGEDLNAVRIIGRIRGAWRLSQF, MGSDKIHHHHHHMVAIDLPYDKRTITAQIDDENYAGKLVSQAATYHNKLSEQETVEKSLDNPIGSDKLEELARGKHNIVIISSDHTRPVPSHIITPILLRRLRSVAPDARIRILVATGFHRPSTHEELVNKYGEDIVNNEEIVMHVSTDDSSMVKIGQLPSGGDCIINKVAAEADLLISEGFIESHFFAGFSGGRKSVLPGIASYKTIMANHSGEFINSPKARTGNLMHNSIHKDMVYAARTAKLAFIINVVLDEDKKIIGSFAGDMEAAHKVGCDFVKELSSVPAIDCDIAISTNGGYPLDQNIYQAVKGMTAAEATNKEGGTIIMVAGARDGHGGEGFYHNLADVDDPKEFLDQAINTPRLKTIPDQWTAQIFARILVHHHVIFVSDLVDPDLITNMHMELAKTLDEAMEKAYAREGQAAKVTVIPDGLGVIVK, MSLYYEQPIYIATQENWDLELNPQIRTNRGFGLYSTLRFLDSPYSTGELNFGAFRENSSYFHDENLKNQTHYGIELKYSRDDLIKSLLSDNFQEGLWIDATYLNDVDYLNLGSRDYRDLNSLVTSKINYFLADENNFYGAYARYYIDTSKLSNNTTLQEYPSFQYHRFLNNLFDERLRYSFDASFHNFYRPAGSYANELNLDLPISYHNAFFGDFLHFTFTERFYASFVNYSNDPERNHEHYFRNTHDFNLYTDLSKAYENFFHTLNLGVNYILPGAKSGKITQDYLEEYDKENEHTSLYAVQYFYNNEGQKKLKHRISLDYLNKQNEFYELENLLTYYFNENINLNSEVLYSYEQSRFTNVISQIEVNTNSKFNWMFSHAYQNDEYGKYSFIGTRANYIATPNYNLFGGIWFDTQRAHANMWELGYTYQRKCWNYSLMYRERIDPQLTSGGITAKNQSGVYFIFNFYPLGGVKYDFSLAESENKIEGHHHHHH

Soluble on expression in E. coli, soluble:
MLLETTPIKANHLRSILDYIEQEQLTAEDRNHCMKLSKKKSIEKKTIHPTVNLNGSACFLQSPSDAIFCRHLSLQYALDSLRNGKGKVNLIKHYSSVESIQQHVPLVRDAEFRALLRHPPAGSRVIASKDFGFALDIFFCRMMANNVSHMSAILYIDNHTLSVRLRIKQSVYGQLNYVVSVYDPNDTNVAVRDTHRTARGFLSLDKFISSGPDAQTWADRYVRNCAIAILPLLPVGVPGAIFAGIASRMPFAPIHPSAMLLIMATGQSQQLITLFKQLPILPEKEIIEIITAQNSVGTPALEHHHHHH, DTDGLWAALTEAAASVEKLLATLPEHGARSSAERAEIAAAHDAARALRVRFLDTHADAVYDRLTDHRRVHLRLAELVEAAATAFPGLVPTQQQLAVERSLPQAAKEGHEIDQGIFLRAVLRSPLAGPHLLDAMLRPTPRALELLPEFVRTGEVEMEAVHLERRDGVARLTMCRDDRLNAEDGQQVDDMETAVDLALLDPGVRVGLLRGGVMSHPRYRGKRVFSAGINLKYLSQGGISLVDFLMRKELGYIHKLVRGVLTNDDRPGWWHSPRIEKPWVAAVDGFAIGGGAQLLLVFDRVLASSDAYFSLPAAKEGIIPGAANLRLGRFAGPRVSRQVILEGRRIWAKEPEARLLVDEVVEPDELDAAIERSLTRLDGDAVLANRRMLNLADESPDGFRAYMAEFALMQALRLYGHDVI
